Results published in paper PMC11060668.
Where no end group is shown, it is not given here. [ ]: non-standard residue; d: D form. pY = N[C@@H](Cc1ccc(OP(=O)(O)O)cc1)C(=O)O

Target: T1, PTP1B (residue 1-321) (UniProt P18031)
T1 sequence: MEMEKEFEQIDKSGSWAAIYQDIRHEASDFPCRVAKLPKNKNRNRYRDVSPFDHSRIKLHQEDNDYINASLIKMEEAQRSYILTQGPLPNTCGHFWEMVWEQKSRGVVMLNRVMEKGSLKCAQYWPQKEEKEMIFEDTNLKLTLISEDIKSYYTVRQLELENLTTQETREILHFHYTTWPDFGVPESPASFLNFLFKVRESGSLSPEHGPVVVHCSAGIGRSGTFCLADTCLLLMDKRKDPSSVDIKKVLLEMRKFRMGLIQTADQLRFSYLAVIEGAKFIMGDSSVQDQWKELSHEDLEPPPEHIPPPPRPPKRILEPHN

ELD[pY][pY]DSHN [alpha-actinin4 derived di-phospho-tyrosine peptide ELDpYpYDSHN]
kcat/KM of dephosphorylation of the peptide by purified PTP1B: 2.17e+06 M^−1 S^−1
